Where two headings read alike, the source gives them in different places.
Assays:
[1] = biological target: T1, human CACNG1 expressed on cells (human, UniProt Q06432 1-222); assay: cell-based or functional assay
[2] = biological target: T1, human CACNG1 expressed on cells; assay: imaging cell binding, HuSKM myotubes
Experimental: (§1) HuSKM were seeded in collagen-coated 96-well plates (Greiner Bio-One #655956) at 8,500 cells/well and grown for 24 hours. The growth media was changed to MyoTonic Differentiation Media (Cook Myosite Cat #MD-5555) and replaced every 2 days. Myotubes were assayed after 6 days of differentiation. C2C12 mouse myoblasts were maintained in DMEM with 10% FBS and 1% penicillin-streptomycin supplement and grown in a 37° C. incubator with 5% CO₂. C2C12 cells were seeded in collagen-coated 96-well plates (Greiner Bio-One #655956) at 10,000 cells/well for the cell binding assay and 5,000 cells/well for the cell killing assay. After 24 hours, growth media was replaced with differentiation media (DMEM with 2% horse serum) and placed in a 37° C. incubator with 7.5% CO₂. C2C12 myotubes were assayed after 3 days of differentiation. HEK293/hCACNG1, HEK293/mCACNG1, and HEK293 cells were seeded at 10,000 cells (cell binding assay) or 2,000 (cell killing assay) per well in 96-well black collagen coated plates (Greiner Bio-One, cat #655956) in complete growth media and grown overnight at 37° C. in 5% CO₂.
(§2) Relative binding of anti-CACNG1 antibodies was assessed across the entire panel of cell lines via imaging analysis. […] After one wash with antibody dilution buffer, samples were fixed in CytoFix (BD Biosciences, Cat #554655) diluted 1:1 in PBS and supplemented with a 1:2000 dilution of Hoechst 33342 (Thermo, Cat #H1399) for 20 minutes on ice. Images were acquired with a 10× objective on the Opera Phenix (Perkin Elmer) and relative fluorescence units (RFU) was determined using Harmony software (Perkin Elmer).

[3] = biological target: T2, nanodisc embedded human CACNG1 expressed with a C-terminal PADRE-Flag-His tag (human, UniProt Q06432 1-222); assay: SPR, anti-His-captured nanodisc, 25 C
T2 construct: Captured on an anti-His Biacore surface; also called human CACNG1 nanodisc; CACNG1 nanodisc; not shown: C-terminal tag
Experimental: Equilibrium dissociation constants (KD values) for nanodisc embedded human CACNG1 expressed with a C-terminal […] tag (human CACNG1 nanodisc; concentration 0.82 mg/ml) binding to purified anti-CACNG1 antibodies were determined using a real-time surface plasmon resonance biosensor technology with a Biacore T200 instrument. The CM5 Biacore sensor surface was derivatized by amine coupling with a monoclonal mouse anti-His antibody (Cytiva; Marlborough, MA). All Biacore binding studies were performed in a buffer composed of 0.01M HEPES, 0.15M NaCl, 1 mM CaCl₂, 0.5 mM MgCl₂, pH 7.4 (HBS-N++ running buffer). Different concentrations of anti-CACNG1 antibodies (ranging from 300 nM to 12 nM in 5-fold serial dilutions) prepared in HBS-N++ running buffer were injected over the captured human CACNG1 nanodisc at a flow rate of 30 μL/minute. Antibody association was monitored for 2 minutes while dissociation was monitored in HBS-N++ running buffer for 5 minutes. At the end of each cycle, the human CACNG1 nanodisc capture surface was regenerated using three 10 second injections of 10 mM Gly pH1.5. All binding kinetics experiments were performed at 25° C.
The specific SPR-Biacore sensorgrams were obtained by a double referencing procedure. The double referencing was performed by first subtracting the signal of each injection over a reference surface (anti-His) from the signal over the experimental surface (anti-His captured human CACNG1 nanodisc) thereby removing contributions from refractive index changes. In addition, running buffer injections were performed to allow subtraction of the signal changes resulting from the dissociation of captured antibodies from the coupled anti-His surface. Kinetic association (kₐ) and dissociation ([…]) rate constants were determined by fitting the real-time sensorgrams to a 1:1 binding model using Scrubber v2.0c curve fitting software. Binding dissociation equilibrium constants (KD) and dissociative half-lives (t %) were calculated from the kinetic rate constants as: […]

[4] = biological target: T1, human CACNG1 expressed on cells; assay: cell-based or functional assay; remark: listed apart in the source
[5] = biological target: T3, mouse CACNG1 expressed on cells (mouse, UniProt O70578 1-223); assay: cell-based or functional assay
T3 sequence (looked up): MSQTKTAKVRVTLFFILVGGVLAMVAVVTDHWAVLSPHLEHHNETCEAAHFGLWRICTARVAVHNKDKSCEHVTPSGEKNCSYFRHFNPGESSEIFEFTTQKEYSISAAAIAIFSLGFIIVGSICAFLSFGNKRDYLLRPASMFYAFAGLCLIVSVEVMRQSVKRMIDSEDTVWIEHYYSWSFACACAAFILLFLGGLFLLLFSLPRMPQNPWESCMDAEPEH

[6] = biological target: T1, human CACNG1 expressed on cells; assay: imaging cell binding, HEK293/hCACNG1
Experimental: as §1, §2

[7] = biological target: T1, human CACNG1 expressed on cells; assay: imaging cell binding, HuSKM myotubes; remark: listed apart in the source
Experimental: as §1, §2

[8] = biological target: T3, mouse CACNG1 expressed on cells; assay: imaging cell binding, C2C12 mouse myotubes
Experimental: as §1, §2

[9] = biological target: T1, human CACNG1 expressed on cells; assay: cell-based or functional assay; remark: listed apart in the source
[10] = biological target: T1, human CACNG1 expressed on cells; assay: cell-based or functional assay; remark: listed apart in the source
[11] = biological target: T1, human CACNG1 expressed on cells; assay: cell-based or functional assay; remark: listed apart in the source
[12] = biological target: T1, human CACNG1 expressed on cells; assay: imaging cell binding, HEK293/hCACNG1; remark: listed apart in the source
Experimental: as §1, §2

[13] = biological target: T3, mouse CACNG1 expressed on cells; assay: imaging cell binding, HEK293/mCACNG1
Experimental: as §1, §2

[14] = biological target: T3, mouse CACNG1 expressed on cells; assay: imaging cell binding, C2C12 mouse myotubes; remark: listed apart in the source
Experimental: as §1, §2

[15] = biological target: T1, human CACNG1 expressed on cells; assay: cell-based or functional assay; remark: listed apart in the source
[16] = biological target: T1, human CACNG1 expressed on cells; assay: cell-based or functional assay; remark: listed apart in the source
[17] = biological target: T1, human CACNG1 expressed on cells; assay: cell-based or functional assay; remark: listed apart in the source
[18] = biological target: T1, human CACNG1 expressed on cells; assay: cell-based or functional assay; remark: listed apart in the source
[19] = biological target: T1, human CACNG1 expressed on cells; assay: cell-based or functional assay; remark: listed apart in the source
[20] = biological target: T1, human CACNG1 expressed on cells; assay: cell-based or functional assay; remark: listed apart in the source
[21] = biological target: T1, human CACNG1 expressed on cells; assay: live myotubes (human myotubes per paragraph 866) incubated with antibody, detection with Alexa 647-conjugated F(ab')2 secondary antibody, Hoechst counterstain, fluorescence imaging; titration 100 to 0.02 nM and 0 nM

T1 sequence (Q06432 whole entry): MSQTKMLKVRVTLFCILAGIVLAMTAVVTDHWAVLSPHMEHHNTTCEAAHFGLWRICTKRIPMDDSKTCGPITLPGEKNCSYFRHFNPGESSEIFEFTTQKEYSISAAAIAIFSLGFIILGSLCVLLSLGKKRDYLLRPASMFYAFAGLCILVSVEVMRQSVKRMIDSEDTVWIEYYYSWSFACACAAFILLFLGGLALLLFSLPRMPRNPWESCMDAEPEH
T2 sequence (Q06432 whole entry): as above

| Binder | EC50/IC50, indirect cell killing, HuSKM [1] [nM] | EC50 [2] [nM] | S/N [2] [fold] | Kd [3] [nM] | koff [3] [s⁻¹] | kon [3] [M⁻¹ s⁻¹] | mAb bound at 300 nM [3] [RU] | t1/2 [3] [min] | % KILL, indirect cell killing, HEK293/hCACNG1 [4] [%] | % KILL, indirect cell killing, HuSKM [4] [%] | EC50/IC50, indirect cell killing, HEK293/hCACNG1 [4] [nM] | EC50/IC50, indirect cell killing, HuSKM [4] [nM] | % KILL, indirect cell killing, HEK293/mCACNG1 [5] [%] | EC50/IC50, indirect cell killing, HEK293/mCACNG1 [5] [nM] | also measured |
| --- | --- | --- | --- | --- | --- | --- | --- | --- | --- | --- | --- | --- | --- | --- | --- |
| REGN9908 (antibody, mouse IgG2b, V domains shown, mIgG2b) VH: EVQLLESGGGLAQPGGSLRLSCAASGFTFSSYAMSWVRQAPGKGLEWVSSVSGSGGTTYYAASVKGRFTVSRDNSKKTLYLQMNSLRAEDTAVYYCGKGGYCSSSGCRHYGMDVWGQGTTVTVSA VL: QSVLTQPPSASGTPGQRVAISCSGSNSNIGNNYLYWYQQIPGTTPKLLIYRNNQRPSGVPDRFSASKSGTSASLAISGLRSGDEADYYCAAWDDSLSGYVFGTGTKVTVLG | 0.0859 | 14.8 | 164 | 9.57 | 0.00402 | 419000 | 21 | 2.9 | – | – | – | – | – | – | – |
| REGN9909 (antibody, mouse IgG2a, kappa, V domains shown, mIgG2a) VH: EVQLLESGGGLVQPGGSLRLSCAASGFTFNNYGMSWVRQGPGKGLEWVSSISGSGGTTFYADSVKGRFTISRDNSKNTLYLQMNSLRAEDTAVYYCGKGGYCSSSGCRHYGMDVWGQGTTVTVSS VL: QSVLTQPPSASGTPGQRVTISCSGSSSNIGNNYIYWYQRLPGTTPKLLIYRNNQRPSGVPDRFSGSKSGTSASLAISGLRSEDEADYYCAAWDDTLSGYVFGTGTKVTVLR | 0.00968 | 6.51 | 141 | 4.15 | 0.00137 | 331000 | 22 | 8.4 | 95.2 | 99.5 | 0.00235 | 0.0183 | 88.5 | 0.0612 | EC50 [6]: 1.6 nM; S/N [6]: 5.4 fold; EC50 [7]: 14 nM; S/N [7]: 171 fold; EC50 [8]: 8.3 nM; S/N [8]: 4.2 fold |
| REGN5972 (antibody, V domains shown, also called H4H31265P2/REGN5972; CACNG1 hIgG1 antibody) VH: QVQLVESGGGVVQPGRSLRLSCTASGFTFRSYGMHWVRQAPGKGLEWVSVIWIDGNNIYYADSVKGRFTISRDNSKNTLYLQMDSLRAEDTAVYYCARRLAITSAAPFDYWGQGTLVTVSS VL: not shown | – | 2.9 | 313 | – | – | – | – | – | 95.4 | 97.4 | 0.00139 | 0.585 | 11 | > 1 | % KILL, indirect cell killing, C2C12 [5]: 0%; EC50/IC50, indirect cell killing, C2C12 [5]: > 10 nM; EC50 of androgen receptor luciferase reporter activation (RLU) by the DHT conjugate REGN5972-M3004 in hCACNG1.AR.Luc LNCaP cells, 24 hours; concentration adjusted for DAR [9]: 19 nM; EC50 of androgen receptor luciferase reporter activation (RLU) by the DHT conjugate REGN5972-M3004 in hCACNG1.AR.Luc LNCaP cells, 48 hours; concentration adjusted for DAR [10]: 6.49 nM; EC50 of androgen receptor luciferase reporter activation (RLU) by the DHT conjugate REGN5972-M3004 in hCACNG1.AR.Luc LNCaP cells, 72 hours; concentration adjusted for DAR [11]: 7.79 nM; EC50 [12]: 6.6 nM; S/N [12]: 172 fold; EC50 [13]: > 100 nM; S/N [13]: 5.3 fold; S/N [14]: 1.6 fold |
| REGN14572 (antibody, human IgG1, kappa, N297Q) heavy: not shown light: DIQMTQSPSTLSASVGDRVTLTCRASQSISNKLAWYQQKPGKAPNLLIYKASNLESGVPSRFSGSGSGTEFTLTISSLQPDDFATYYCQQYNSYSWTFGQGTKVEIKRTVAAPSVFIFPPSDEQLKSGTASVVCLLNNFYPREAKVQWKVDNALQSGNSQESVTEQDSKDSTYSLSSTLTLSKADYEKHKVYACEVTHQGLSSPVTKSFNRGEC | – | – | – | – | – | – | – | – | – | – | – | – | – | – | EC50 of androgen receptor luciferase reporter activation (RLU) by the DHT conjugate REGN14572-M3004 in hCACNG1.AR.Luc LNCaP cells, 24 hours; concentration adjusted for DAR [15]: 11.2 nM; EC50 of androgen receptor luciferase reporter activation (RLU) by the DHT conjugate REGN14572-M3004 in hCACNG1.AR.Luc LNCaP cells, 48 hours; concentration adjusted for DAR [16]: 11.9 nM; EC50 of androgen receptor luciferase reporter activation (RLU) by the DHT conjugate REGN14572-M3004 in hCACNG1.AR.Luc LNCaP cells, 72 hours; concentration adjusted for DAR [17]: 10.3 nM |
| REGN14573-M3004 (antibody, human IgG1, lambda, N297Q, N297Q; DHT linker-payload M3004 conjugated, DAR about 4) heavy chain: not shown light chain: QSVLTQPPSVSAAPGQKVTISCSGSSSNIGNNYVSWYQQLPGTAPKLLIYDNNKRPSGIPDRFSGSKSGTSATLGITGLQTGDEADYYCGTWDLSLSFNWVFGGGTKLTVLGQPKAAPSVTLFPPSSEELQANKATLVCLISDFYPGAVTVAWKADSSPVKAGVETTTPSKQSNNKYAASSYLSLTPEQWKSHRSYSCQVTHEGSTVEKTVAPTECS | – | – | – | – | – | – | – | – | – | – | – | – | – | – | EC50 of androgen receptor luciferase reporter activation (RLU) by the DHT conjugate REGN14573-M3004 in hCACNG1.AR.Luc LNCaP cells, 24 hours; concentration adjusted for DAR [18]: 214 nM; EC50 of androgen receptor luciferase reporter activation (RLU) by the DHT conjugate REGN14573-M3004 in hCACNG1.AR.Luc LNCaP cells, 48 hours; concentration adjusted for DAR [19]: 213 nM; EC50 of androgen receptor luciferase reporter activation (RLU) by the DHT conjugate REGN14573-M3004 in hCACNG1.AR.Luc LNCaP cells, 72 hours; concentration adjusted for DAR [20]: 185 nM |
| REGN7854 (antibody, human IgG4 S228P, kappa, V domains shown, also called CACNG1 Ab) VH: QVQLVQSGAEVKKPGASVKVSCKASGYAFTTYGITWVRQAPGQGLEWMGWISAYNGNTNYAEKVQGRFTMTTDTSTNTAYMELRSLRSDDTAVYFCARKGHYGSGTYYNPFGFDFWGQGTMVTVSS VL: EIVLTQSPGTLSLSPGERATLSCRASQSVSSSYLAWYQQKPGQAPRLLIYGASSRATGIPDRFSGSGSGTDFTLTISRLEPEDFALYFCQQYYGSPWTFGQGTKVEIKR | – | – | – | – | – | – | – | – | – | – | – | – | – | – | binding result [21]: binds |

From US20240182561A1 (Regeneron, published 2024)
